These results are taken from the DeepSol protein solubility set.

This data set in a line: soluble on expression in E. coli; label from the status in PepcDB or PDB records.
Regarding “MGSDKIHHHHHHMIPWVISPYSFDGSVVRFEKLALLLKRKGLKSVILADRNFHAAVKFNTIMRKHGLIPVHGLWKDGRIFVARNREEFDSLVRYYNGETHEIEDIPVFQESELTPVRYLDASEKKASIFMRKIFGLDEDVQGFPEKCEDVADILNAEAYDLRVNHRFPTPPKNWNELLIKKAEPLGEEYISRLKRELEVIKRKGFTPYIYTVEKVVEIAKKMGIKVGPGRGSAVGSLVAYLCGITEVDPIKYDLLFERFLNEERQEPPDIDVDVEDRRRKDLIKELSKSFQVYQVSTFGNLTEKSLKNLINSVLPDASLEEKNEIYKTVYGLPHHPSVHAAGVVISENPLPLPTRTEEDIPITDYDMYDLQEIGVVKIDILGLKTLSFIKDFKKEIFDYSDEKTYHLISKGKTLGVFQLEGLQARKLCRRISPRNMDELSILLALNRPGPLRSGLDVMFSNSKNVPAFFRKMFPETRGVLIYQEQIMRLAMFAGLSGTEADILRRAIAKKEREKMEPLLEKMKKGLLEKGMENAEQILEILLNFSSYAFNKSHSVAYAHITYQTAYLKAHHLEEFFKLYFAYNSSDAGKIFLAVQELRNEGYRVHPPDINISGKDLVFHGKDVYLPLTVVKGVGVTLVEQIEKIRPVSSVRELQERVTGVPRNVVESLITAGAFDKLYENRKLALEELNKRVEKDILEIRSLFGEKVEQESSNIKIGDITELEEKSMGFPLTPVHEVPTGLFARIDDVFTYGRILPVLVKRVSRNIVTDGLSVCRVRTDVPDGVHLVLLSPLQKIIKIWPFNENTRFVYRVDFTATLEKAGQNEITEVLKNGAVVRYEGYRPLTDEYRYRVVPR”, the “soluble on expression in E. coli” value is reported as “not soluble”.

With “MGSDKIHHHHHHMAKERALTLEALRVMDAIDRRGSFAAAADELGRVPSALSYTMQKLEEELDVVLFDRSGHRTKFTNVGRMLLERGRVLLEAADKLTTDAEALARGWETHLTIVTEALVPTPAFFPLIDKLAAKANTQLAIITEVLAGAWERLEQGRADIVIAPDMHFRSSSEINSRKLYTLMNVYVAAPDHPIHQEPEPLSEVTRVKYRGIAVADTARERPVLTVQLLDKQPRLTVSTIEDKRQALLAGLGVATMPYPMVEKDIAEGRLRVVSPESTSEIDIIMAWRRDSMGEAKSWCLREIPKLFNGK”, the “soluble on expression in E. coli” value was “not soluble”.

Regarding “MLERIANIQKKLSKSIVERKINEVRKVAAVDVSYKEEKARAALVITTFPEGEVLKTKVIETTVSFPYIPTFFFLRETKPILIATKGETFDVLIVEGHGKAHPRGYGLASHIGVVLRKPTIGVAKRLLKNTPKDTYKKVGKVYVSVGNLITLEDATKIIRAILDESGYPKPLKLADKLSKGRIYEVKNTPSPNRSRKKRGNRGKDNNNSQGNLEHHHHHH”, the “soluble on expression in E. coli” value was “soluble”.

Turning to “MKDLKKIESYLDKLRIKEKDGEERKIYAEVLDGRTLKTLYKLSAKGYITAMGGVISTGKEANVFYADGVFDGKPVAMAVKIYRIETSEFDKMDEYLYGDERFDMRRISPKEKVFIWTEKEFRNLERAKEAGVSVPQPYTYMKNVLLMEFIGEDELPAPTLVELGRELKELDVEGIFNDVVENVKRLYQEAELVHADLSEYNIMYIDKVYFIDMGQAVTLRHPMAESYLERDVRNIIRFFSKYGVKADFEEMLKEVKGE”, the “soluble on expression in E. coli” value is recorded as “soluble”.

As to “VPDKSPDLLFELLNDFFTQLLSAGESESMDNLIELDLTFSQVRMLFALVQHGEPLPINEVAERLRLSVAAAGRNVDQLVKLGLVVRREDERDRRVKRVSLSEAGHKVATQHIECKRDQLRRFAWRVPEIERTRLIEALQPILAGESLRELNQEILG”, the “soluble on expression in E. coli” value is given as “not soluble”.

In the case of “MKTRKIPLRKSVVSNEVIDKRDLLRIVKNKEGQVFIDPTGKANGRGAYIKLDNAEALEAKKKKVFNRSFSMEVEESFYDELIAYVDHKVKRRELGLE”, the “soluble on expression in E. coli” value is given as “soluble”.

Regarding “MGSDKIHHHHHHAEITLLKQDPQAGDPLSRLNFTVGGSIRPQFNMMTGDGDKGSYKRNGFDGGTRFRFAADYYLFDDISWISYYELGVNIPALFDWDNHYAEGANNTTRRMLYTGLKSDTWGTLTYGQQNSIYYDVVGVKTDIWDYDMIGQAPGNGINGDYDGSYRSRNMLKYKKTVGDVDLYGSYLFEDSEYLPGNGLRYKRKGGGSVGADYHIMKDLTWGTAWNYTRAEMRDPSSADSKTYDQNIVGTALSWTPDNWTFSFGGGWYQNFLTTKKTDVHNYFAGDAWGIEYFAGYKFPINQYAVKSIQPYFMGDRLEYVNGRNYQRIDNGLGISFQLDYGFRVDYEHVFTSSTDNLGDMNLVRLRYDF”, the “soluble on expression in E. coli” value is “not soluble”.
